In patent US20240124553A1 (WASHINGTON UNIVERSITY, published 2024):

Target: T1, Mayaro virus (MAYV) structural proteins on infected cells (Mayaro virus)
T1 construct: whole, on cells
Test: flow cytometry, surface staining of MAYV-infected Vero cells with serial dilutions, % binding to infected cells

B1: Mxra8-Fc (extracellular domain of mouse Mxra8 fused to mouse IgG2b Fc) (Fc fusion)
chain: SGPSGTAAASSSLVSESVVSLAAGTQAVLRCQSPRMVWTQDRLHDRQRVVHWDLSGGPGSQRRRLVDMYSAGEQRVYEPRDRDRLLLSPSAFHDGNFSLLIRAVDRGDEGVYTCNLHHHYCHLDESLAVRLEVTEDPLLSRAYWDGEKEVLVVAHGAPALMTCINRAHVWTDRHLEEAQQVVHWDRQLPGVSHDRADRLLDLYASGERRAYGPPFLRDRVSVNTNAFARGDFSLRIDELERADEGIYSCHLHHHYCGLHERRVFHLQVTEPAFEPPARASPGNGSGHSSAPSPDPTLTRGHSIINVIVPEDHTHPSGPISTINPCPPCKECHKCPAPNLEGGPSVFIFPPNIKDVLMISLTPKVTCVVVDVSEDDPDVQISWFVNNVEVHTAQTQTHREDYNSTIRVVSTLPIQHQDWMSGKEFKCKVNNKDLPSPIERTISKIKGLVRAPQVYILPPPAEQLSRKDVSLTCLVVGFNPGDISVEWTSNGHTEENYKDTAPVLDSDGSYFIYSKLNMKTSKWEKTDSFSCNVRHEGLKNYYLKKTISRSPGK
notes: also called mMxra8-Fc; mouse Mxra8-Fc
EC50 (read off the curve): ~3 ng/mL
